Measured values published in patent US20250115641A1 (published 2025).
Bridge positions count the residues as written; N and C are the ends. Square brackets hold non-standard residues; d marks the D form. Primed or numbered codes have the meaning given here. S5 = C=CCCC[C@](C)(N)C(=O)O; Nle = CCCC[C@H](N)C(=O)O; FITC′ = fluorescein; βAla = NCCC(=O)O

T1: human NLRP3^PYD (residues 3-110, C-terminal 6 x histidine) (human, UniProt Q96P20 3-110)
T1 chain: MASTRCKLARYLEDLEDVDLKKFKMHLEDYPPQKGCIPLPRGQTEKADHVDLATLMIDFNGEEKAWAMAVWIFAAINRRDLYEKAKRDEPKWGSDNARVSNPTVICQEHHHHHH


Key:
[1] = biological target: GST-NLRP3PYD; experiment: fluorescence anisotropy
[2] = biological target: T2, human N-terminally GST tagged ASC^PYD (human, UniProt Q9ULZ3 1-106); experiment: fluorescence anisotropy
T2 sequence (Q9ULZ3 1-106): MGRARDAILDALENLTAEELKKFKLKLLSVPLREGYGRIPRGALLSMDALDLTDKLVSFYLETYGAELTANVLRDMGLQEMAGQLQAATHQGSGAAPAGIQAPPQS

[3] = biological target: T2, human N-terminally GST tagged ASC^PYD; experiment: FP
[4] = biological target: T1, human NLRP3^PYD (residues 3-110, …); experiment: FP

Kd [1] [µM] | Kd [2] [µM] | Kd [3] [µM] | Kd [4] [µM] | Binder
12 |  |  |  | {FITC′}-[βAla]Q[S5]LRR[S5]QWKLWTA-NH2 (staple 3-7) [fSAH-POP1-13]
20 |  | 0.59 |  | {FITC′}-[βAla]Q[S5]LRK[S5]QWKLWTA-NH2 (staple 3-7) [fSAH-POP1-12]
15 |  |  |  | {FITC′}-[βAla]Q[S5]LRR[S5]QWKLWTS-NH2 (staple 3-7) [fSAH-POP1-16]

The remaining lines, values behind:

Binder | Kd [1] [µM] | Kd [2] [µM] | Kd [3] [µM] | Kd [4] [µM]
AQXLRKXQXKLWTA (not fully specified; N-terminal fluorescein (FITC) on β-alanine; S5 = (S)-2-(4-pentenyl)alanine residues covalently linked (hydrocarbon staple); norleucine (NL) at the position of M25 of POP1; made on Rink amide resin) [fSAH-POP1-10] | 31 | > 56 |  | 
{FITC′}-[βAla]EELKKFK[Nle]KLGTV-NH2 [fPOP1-H2] | 27 | > 56 | > 10 | 9.2
AQXLKKXKXKLGTA (N-terminal fluorescein (FITC) on β-alanine; S5 = (S)-2-(4-pentenyl)alanine residues covalently linked (hydrocarbon staple); made on Rink amide resin) [fSAH-POP1-5] | 30 | > 56 | > 10 | 
XQXLKKXKXKLWTA (N-terminal fluorescein (FITC) on β-alanine; S5 = (S)-2-(4-pentenyl)alanine residues covalently linked (hydrocarbon staple); made on Rink amide resin) [fSAH-POP1-6] | 43 | > 56 |  | 
AEXLKKXKXKLGTV (N-terminal fluorescein (FITC) on β-alanine; S5 = (S)-2-(4-pentenyl)alanine residues covalently linked (hydrocarbon staple); made on Rink amide resin) [fSAH-POP1-4] | 32 | > 56 | > 10 | 
